Data reported in the supplement of paper PMC10126150.
± gives the standard deviation of the averaged measurements.

test system: ATP; assay: switch fluorescence ratio, 500 uM ATP over buffer (Cy3 cluster intensity, sum of 5 cycles each) (fold (ratio)); higher = stronger signal-on switching upon ATP binding; sequences stand for … in TCGTCGGCAGCGTCAGATGTGTATAAGAGACAGTTTTTTTTTTTTTTTTTTTTTTTTT…TC; conditions: aptamer strand: ATP DNA aptamer (quencher-CACCTGGGGGAGTATTGCGGAGGAAGG + anchor), 100 nM annealed; ATP concentration: 500 uM
Method in brief: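 Imaging in selection buffer was followed by imaging after 15 min with 500 uM ATP at 22 °C, for Cy3-labelled switching-strand clusters annealed to 100 nM quencher-labelled ATP aptamer on a modified Illumina MiSeq flow-cell. Five of these buffer/ATP cycles ran, separated by NaOH stripping and re-annealing. The fluorescence ratio per cluster is summed target-cycle over summed buffer-cycle Cy3 intensity, averaged per switch-domain sequence; clusters outside 100-1000 RFU were removed.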
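Also: ATP exposure 15 min at 22 °C before imaging.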

First: TTTCGGTGTG
Second: TTTCGTGCCT
The switch fluorescence ratio of the first is lower: 0.977 ± 0.0098 for the first, 1.065 ± 0.0026 for the second.

TTTCGTGGAG and TTTCGTGTGA are within error of each other in switch fluorescence ratio: 0.996 ± 0.02 for the first, 1.015 ± 0.0062 for the second.

TTTCGTTGCT and TTTCGTTGGT are within error of each other in switch fluorescence ratio: 0.994 ± 0.018 for the first, 0.982 ± 0.016 for the second.

TTTCTATGTA and TTTCTCGTAG are within error of each other in switch fluorescence ratio: 1.01 ± 0.024 for the first, 0.991 ± 0.016 for the second.

Compared with TTTCTCGTTG, TTTCTCTACG is higher in switch fluorescence ratio: 0.9908 ± 0.0074 for the first, 1.015 ± 0.0056 for the second.

Going from TTTCTGAGTT to TTTCTGCGGC, the switch fluorescence ratio rises from 1.01 ± 0.032 to 1.046 ± 0.0017.

TTTCTGGCAA and TTTCTGGCGA are within error of each other in switch fluorescence ratio: 1.32 ± 0.38 for the first, 1.054 ± 0.01 for the second.

TTTCTGGTCT and TTTCTGTATC are within error of each other in switch fluorescence ratio: 1.03 ± 0.012 for the first, 1.04 ± 0.044 for the second.

TTTCTGTTGT and TTTCTGTTTC are within error of each other in switch fluorescence ratio: 1.14 ± 0.16 for the first, 1.04 ± 0.052 for the second.

Compared with TTTCTGTTTT, TTTCTTATGT is higher in switch fluorescence ratio: 0.9913 ± 0.0088 for the first, 1.03 ± 0.024 for the second.

TTTCTTCGCG and TTTCTTGTTT are within error of each other in switch fluorescence ratio: 1.027 ± 0.0032 for the first, 0.985 ± 0.055 for the second.

TTTGAAAACT and TTTGAACTTC are within error of each other in switch fluorescence ratio: 0.995 ± 0.024 for the first, 1.27 ± 0.38 for the second.

TTTGAAGAAC and TTTGAAGCAG are within error of each other in switch fluorescence ratio: 1.01 ± 0.056 for the first, 1.08 ± 0.068 for the second.

TTTGAAGTGG and TTTGAATTAA are within error of each other in switch fluorescence ratio: 1.03 ± 0.03 for the first, 1.01 ± 0.049 for the second.

TTTGAATTTG and TTTGACAAGC are within error of each other in switch fluorescence ratio: 0.974 ± 0.023 for the first, 1.15 ± 0.18 for the second.

TTTGACCCTA and TTTGACGGTT are within error of each other in switch fluorescence ratio: 1.04 ± 0.019 for the first, 1.03 ± 0.015 for the second.

TTTGACTGAG and TTTGAGAAAG are within error of each other in switch fluorescence ratio: 0.997 ± 0.023 for the first, 0.992 ± 0.019 for the second.

TTTGAGACGT and TTTGAGATTG are within error of each other in switch fluorescence ratio: 1.02 ± 0.041 for the first, 0.99556 ± 0.00097 for the second.

TTTGAGCTCT and TTTGAGCTGG are within error of each other in switch fluorescence ratio: 0.97 ± 0.014 for the first, 0.996 ± 0.035 for the second.

TTTGAGGGTC and TTTGAGGTTT are within error of each other in switch fluorescence ratio: 0.991 ± 0.037 for the first, 1.01 ± 0.011 for the second.

TTTGAGTAAA and TTTGAGTAAG are within error of each other in switch fluorescence ratio: 1.01 ± 0.019 for the first, 1.02 ± 0.046 for the second.

TTTGAGTTT and TTTGATAAAG are within error of each other in switch fluorescence ratio: 0.981 ± 0.012 for the first, 1.03 ± 0.092 for the second.

TTTGATACGG and TTTGATATAG are within error of each other in switch fluorescence ratio: 1 ± 0.028 for the first, 0.994 ± 0.034 for the second.

TTTGATCTTG and TTTGATGAGA are within error of each other in switch fluorescence ratio: 1.01 ± 0.013 for the first, 1 ± 0.028 for the second.

TTTGATGAGT and TTTGATGGGG are within error of each other in switch fluorescence ratio: 1.01 ± 0.013 for the first, 0.988 ± 0.025 for the second.

TTTGATGGTG and TTTGATTCAG are the same in switch fluorescence ratio: 1.04 ± 0.012 for the first, 1.04 ± 0.071 for the second.

TTTGATTGCA and TTTGATTGCG are within error of each other in switch fluorescence ratio: 1.03 ± 0.068 for the first, 1 ± 0.011 for the second.

First: TTTGATTTTG
Second: TTTGCAATTG
The switch fluorescence ratio of the first is lower: 0.989 ± 0.016 for the first, 1.13 ± 0.062 for the second.

First: TTTGCACCAT
Second: TTTGCAGAAC
The switch fluorescence ratio of the first is lower: 1.03 ± 0.017 for the first, 1.2 ± 0.15 for the second.

TTTGCAGCGG and TTTGCCATTT are the same in switch fluorescence ratio: 1.02 ± 0.012 for the first, 1.02 ± 0.033 for the second.

TTTGCCCAGA and TTTGCCCCTG are within error of each other in switch fluorescence ratio: 1.02 ± 0.041 for the first, 1.03 ± 0.021 for the second.

First: TTTGCCGAGT
Second: TTTGCCGCCC
The switch fluorescence ratio of the first is lower: 0.996 ± 0.044 for the first, 1.145 ± 0.0012 for the second.

TTTGCGACCT and TTTGCGATGG are within error of each other in switch fluorescence ratio: 1.13 ± 0.066 for the first, 1.09 ± 0.011 for the second.

TTTGCGGAGG and TTTGCGGGAT are within error of each other in switch fluorescence ratio: 1.27 ± 0.48 for the first, 1.03 ± 0.014 for the second.

TTTGCTACGG and TTTGCTAGAT are the same in switch fluorescence ratio: 1.05 ± 0.013 for the first, 1.047 ± 0.0097 for the second.

TTTGCTATCA and TTTGCTGAAA are within error of each other in switch fluorescence ratio: 0.984 ± 0.013 for the first, 0.964 ± 0.026 for the second.

Going from TTTGCTGGTA to TTTGCTGGTC, the switch fluorescence ratio rises from 1.006 ± 0.0064 to 1.05 ± 0.025.

TTTGCTTAGA and TTTGCTTGGG are within error of each other in switch fluorescence ratio: 1.04 ± 0.025 for the first, 1.02 ± 0.033 for the second.

TTTGGACATC and TTTGGACGCA are within error of each other in switch fluorescence ratio: 1.02 ± 0.027 for the first, 1.12 ± 0.12 for the second.

Going from TTTGGACGGT to TTTGGAGCAC, the switch fluorescence ratio rises from 1.015 ± 0.0099 to 1.6 ± 0.2.

TTTGGAGGGG and TTTGGAGTGG are within error of each other in switch fluorescence ratio: 1.03 ± 0.039 for the first, 0.998 ± 0.033 for the second.

TTTGGATACG and TTTGGATGGG are within error of each other in switch fluorescence ratio: 1.01 ± 0.011 for the first, 0.994 ± 0.012 for the second.

TTTGGATTGT and TTTGGATTTT are within error of each other in switch fluorescence ratio: 1.006 ± 0.0074 for the first, 1 ± 0.045 for the second.

TTTGGCCCTT and TTTGGCCGTT are within error of each other in switch fluorescence ratio: 1.02 ± 0.027 for the first, 1.2 ± 0.26 for the second.

TTTGGCCTAC and TTTGGCTACG are the same in switch fluorescence ratio: 1.01 ± 0.02 for the first, 1.01 ± 0.011 for the second.

TTTGGCTGAA and TTTGGCTTAG are within error of each other in switch fluorescence ratio: 1.01 ± 0.019 for the first, 0.991 ± 0.029 for the second.

TTTGGCTTGC and TTTGGCTTTC are within error of each other in switch fluorescence ratio: 1.01 ± 0.042 for the first, 1.06 ± 0.016 for the second.

TTTGGGAACT and TTTGGGACGC are within error of each other in switch fluorescence ratio: 1 ± 0.021 for the first, 1.05 ± 0.088 for the second.

TTTGGGAGTG and TTTGGGATGC are within error of each other in switch fluorescence ratio: 0.965 ± 0.037 for the first, 1.07 ± 0.095 for the second.

TTTGGGATGT and TTTGGGCCGC are within error of each other in switch fluorescence ratio: 1.02 ± 0.073 for the first, 1.06 ± 0.05 for the second.
